In publication PMC8499471:

How the values were obtained:
[1] = molecular target: Flag-Kr-h1^S154D (Locusta migratoria)
[2] = molecular target: Flag-Kr-h1^S154D (Locusta migratoria); remark: listed apart in the source
[3] = molecular target: Flag-Kr-h1 (Krüppel-homolog 1 of Locusta migratoria, wildtype, methoprene-exposed) (Locusta migratoria)

RL36 reporter activity (dual luciferase, pGL4.10-4×RL36 -1647 to -1632) in S2 cells, co-expression of Flag-CBP and Flag-Kr-h1^S154D (fold increase) [1] | E93 reporter activity (dual luciferase, pGL4.10-4×E93 -623 to -606) in S2 cells, co-expression of Flag-CtBP and Flag-Kr-h1^S154D [2] [% reduction] | E93 reporter activity (dual luciferase, pGL4.10-4×E93 -623 to -606) in S2 cells with 10 uM methoprene, co-expression of Flag-CtBP and Flag-Kr-h1 [3] [% reduction] | Substance
1.7 | – | – | Flag-CBP (CREB-binding protein of Locusta migratoria) (natural protein)
– | 50 | 47 | Flag-CtBP (C-terminal binding protein of Locusta migratoria) (natural protein)
